Laboratory results taken from US20240270857A1 (CHIA TAI TIANQING PHARMACEUTICAL GROUP, published 2024).
Read-outs that look alike come from different tables or passages of the source.

Tests used:
[1] = molecular target: T1, IL-36R naturally expressed on OVCAR8 cells and on normal human epidermal keratinocytes (NHK cells) (human, UniProt Q9HB29 20-575); experiment: cell-based or functional assay
T1 sequence (looked up): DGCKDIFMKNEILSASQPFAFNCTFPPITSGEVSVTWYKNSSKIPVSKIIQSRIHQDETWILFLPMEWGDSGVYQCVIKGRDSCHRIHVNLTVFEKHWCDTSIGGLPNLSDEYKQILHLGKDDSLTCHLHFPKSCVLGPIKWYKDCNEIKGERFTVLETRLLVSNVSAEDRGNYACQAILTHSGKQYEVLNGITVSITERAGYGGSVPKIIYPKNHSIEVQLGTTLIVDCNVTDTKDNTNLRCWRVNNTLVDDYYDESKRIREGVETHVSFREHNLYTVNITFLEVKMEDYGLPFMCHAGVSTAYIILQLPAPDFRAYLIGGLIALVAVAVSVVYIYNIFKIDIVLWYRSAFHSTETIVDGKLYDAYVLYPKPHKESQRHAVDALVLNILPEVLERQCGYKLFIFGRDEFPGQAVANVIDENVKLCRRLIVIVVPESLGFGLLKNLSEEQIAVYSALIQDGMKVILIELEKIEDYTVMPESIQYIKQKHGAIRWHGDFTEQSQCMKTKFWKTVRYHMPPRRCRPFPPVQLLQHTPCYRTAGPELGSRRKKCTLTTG

[2] = molecular target: T2, Human IL-1Rrp2/IL-1R6 protein, His Tag (ACROBiosystems, IL2-H52H6) (human, UniProt Q9HB29 20-335); experiment: ELISA, plate coated with human IL-1Rrp2/IL-1R6 His Tag, HRP-protein A/G, OD450
T2 construct: Bought protein; the soluble protein is likely only the extracellular part; also called hIL-36R; human IL36R antigen; not shown: His tag
T2 sequence: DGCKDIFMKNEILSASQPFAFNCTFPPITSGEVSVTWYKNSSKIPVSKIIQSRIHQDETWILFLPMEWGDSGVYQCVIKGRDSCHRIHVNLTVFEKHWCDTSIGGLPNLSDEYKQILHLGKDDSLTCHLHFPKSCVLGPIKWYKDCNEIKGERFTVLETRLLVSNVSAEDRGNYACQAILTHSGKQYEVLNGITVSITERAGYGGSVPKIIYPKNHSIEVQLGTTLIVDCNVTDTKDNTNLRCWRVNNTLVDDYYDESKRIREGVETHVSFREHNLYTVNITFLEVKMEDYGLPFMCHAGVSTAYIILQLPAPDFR
Method: (§1) The binding activity of anti-IL-36R antibodies to IL-36R was analyzed by ELISA using human IL-1Rrp2/IL-1R6 protein, His Tag (ACROBiosystems, IL2-H52H6) and CynoIL36R-ECD mFc (for detection of chimeric and humanized antibodies), and hIL36R-ECD hFc and CynoIL36R-ECD hFc protein (for detection of hybridoma antibodies) as antigens. A 96-well plate (Costar, 9018) was coated with 2 μg/mL antigen at 100 μL/well and incubated overnight at 4° C. After the 96-well plate was washed with a washing buffer (PBS containing 0.05% v/v Tween 20), a blocking buffer (PBS containing 2% bovine serum albumin) was added for blocking at 37° C. for 2 h. After the 96-well plate was washed with the washing buffer, 100 μL of the gradient diluted anti-IL-36R antibody of the present disclosure or the reference antibody BI655130 (the initial concentration of the antibody was 66 nM, 4-fold gradient dilution) was added to each well, and the plate was incubated at room temperature for 1 h. After the 96-well plate was washed with the washing buffer, 100 μL of horseradish peroxidase-conjugated recombinant protein A/G (TheroScientific, 32490) was added to each well, and the plate was incubated at room temperature for 1 h. After the 96-well plate was washed with the washing buffer, 100 μL of a TMB solution (Thermo, 00-4201-56) was added to each well, and the plate was incubated at room temperature for 2 min. Finally, 100 μL of a stop solution (2 N H₂SO₄) was added to each well to stop the reaction. Absorbance was read at 450 nm using a microplate reader (PE, Envision), the resulting data was analyzed using GraphPad Prism, and EC₅₀ was calculated. Binding EC₅₀ of the chimeric anti-IL-36R antibodies to hIL-36R in an ELISA assay is shown in FIG. 1. and binding EC₅₀ of the chimeric anti-IL-36R antibodies to CynoIL-36R in an ELISA assay is shown in FIG. 2. The binding of BI655130 is shown as a control, and the binding of IgG4 is shown as a negative control.

[3] = molecular target: T3, human IL-36R overexpressed on 293T-hIL36R-NFκB cells (human, UniProt Q9HB29 20-575); experiment: cell-based or functional assay
T3 sequence: T1 sequence (looked up)

[4] = molecular target: T1, IL-36R naturally expressed on OVCAR8 …; experiment: cell-based or functional assay; remark: listed apart in the source
[5] = molecular target: T2, Human IL-1Rrp2/IL-1R6 protein, His Tag …; experiment: ELISA, plate coated with human IL-1Rrp2/IL-1R6 His Tag, HRP-protein A/G, OD450; remark: listed apart in the source
Method: as §1

IC50 (M); hIL36α; IL-8 production [1]: 1.6e-11 M
IC50 (M); hIL36αβγ; IL-8 production [1]: 1.42e-11 M
IC50 (M); hIL36β; IL-8 production [1]: 2.45e-11 M
IC50 (M); hIL36γ; IL-8 production [1]: 8.12e-12 M
Maximum inhibition rate %; hIL36α; IL-8 production [1]: 99.6%
Maximum inhibition rate %; hIL36αβγ; IL-8 production [1]: 99.9%
Maximum inhibition rate %; hIL36β; IL-8 production [1]: 99.1%
Maximum inhibition rate %; hIL36γ; IL-8 production [1]: 100%
EC50 [2]: 0.764 nM
IC50 (M); hIL36α; NFκB-luciferase [3]: 6.09e-09 M
IC50 (M); hIL36αβγ; NFκB-luciferase [3]: 2.36e-08 M
IC50 (M); hIL36β; NFκB-luciferase [3]: 2.45e-09 M
IC50 (M); hIL36γ; NFκB-luciferase [3]: ~1.32e-08 M
Maximum inhibition rate %; hIL36α; NFκB-luciferase [3]: 84.5%
Maximum inhibition rate %; hIL36αβγ; NFκB-luciferase [3]: 81.2%
Maximum inhibition rate %; hIL36β; NFκB-luciferase [3]: 86.7%
Maximum inhibition rate %; hIL36γ; NFκB-luciferase [3]: 79.2%
IC50 (M); hIL36α; IL-8 production [4]: 4.34e-11 M
IC50 (M); hIL36αβγ; IL-8 production [4]: 4.88e-11 M
IC50 (M); hIL36β; IL-8 production [4]: 1.57e-11 M
IC50 (M); hIL36γ; IL-8 production [4]: 1.42e-11 M
Maximum inhibition rate %; hIL36α; IL-8 production [4]: 99.8%
Maximum inhibition rate %; hIL36αβγ; IL-8 production [4]: 99.9%
Maximum inhibition rate %; hIL36β; IL-8 production [4]: 99.7%
Maximum inhibition rate %; hIL36γ; IL-8 production [4]: 99.7%
EC50 [5]: 0.348 nM
B1: BI655130 (antibody, human IgG1, kappa, L234A L235A)
heavy: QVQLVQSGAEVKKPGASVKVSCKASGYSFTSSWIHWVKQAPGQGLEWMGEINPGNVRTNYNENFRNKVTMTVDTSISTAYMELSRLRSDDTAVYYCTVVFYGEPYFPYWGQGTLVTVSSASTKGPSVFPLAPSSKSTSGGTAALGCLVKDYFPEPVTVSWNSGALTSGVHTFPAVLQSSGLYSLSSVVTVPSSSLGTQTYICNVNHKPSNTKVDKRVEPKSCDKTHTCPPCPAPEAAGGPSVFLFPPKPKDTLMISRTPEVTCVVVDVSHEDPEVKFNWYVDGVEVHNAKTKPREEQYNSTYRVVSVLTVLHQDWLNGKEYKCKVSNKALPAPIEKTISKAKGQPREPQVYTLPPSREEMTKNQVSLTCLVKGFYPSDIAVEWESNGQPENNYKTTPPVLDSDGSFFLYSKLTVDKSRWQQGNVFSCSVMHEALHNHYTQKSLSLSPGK
light: QIVLTQSPGTLSLSPGERATMTCTASSSVSSSYFHWYQQKPGQAPRLWIYRTSRLASGVPDRFSGSGSGTDFTLTISRLEPEDAATYYCHQFHRSPLTFGAGTKLEIKRTVAAPSVFIFPPSDEQLKSGTASVVCLLNNFYPREAKVQWKVDNALQSGNSQESVTEQDSKDSTYSLSSTLTLSKADYEKHKVYACEVTHQGLSSPVTKSFNRGEC
notes: also called Spesolimab
